Consider 4 molecules from paper PMC8791620 (Science Advances, 2022).

To fix the notation:
T1: Trs120 (3xFLAG-tagged, subunit of TRAPPII) (S. cerevisiae, UniProt Q04183 1-1289)
T1 sequence: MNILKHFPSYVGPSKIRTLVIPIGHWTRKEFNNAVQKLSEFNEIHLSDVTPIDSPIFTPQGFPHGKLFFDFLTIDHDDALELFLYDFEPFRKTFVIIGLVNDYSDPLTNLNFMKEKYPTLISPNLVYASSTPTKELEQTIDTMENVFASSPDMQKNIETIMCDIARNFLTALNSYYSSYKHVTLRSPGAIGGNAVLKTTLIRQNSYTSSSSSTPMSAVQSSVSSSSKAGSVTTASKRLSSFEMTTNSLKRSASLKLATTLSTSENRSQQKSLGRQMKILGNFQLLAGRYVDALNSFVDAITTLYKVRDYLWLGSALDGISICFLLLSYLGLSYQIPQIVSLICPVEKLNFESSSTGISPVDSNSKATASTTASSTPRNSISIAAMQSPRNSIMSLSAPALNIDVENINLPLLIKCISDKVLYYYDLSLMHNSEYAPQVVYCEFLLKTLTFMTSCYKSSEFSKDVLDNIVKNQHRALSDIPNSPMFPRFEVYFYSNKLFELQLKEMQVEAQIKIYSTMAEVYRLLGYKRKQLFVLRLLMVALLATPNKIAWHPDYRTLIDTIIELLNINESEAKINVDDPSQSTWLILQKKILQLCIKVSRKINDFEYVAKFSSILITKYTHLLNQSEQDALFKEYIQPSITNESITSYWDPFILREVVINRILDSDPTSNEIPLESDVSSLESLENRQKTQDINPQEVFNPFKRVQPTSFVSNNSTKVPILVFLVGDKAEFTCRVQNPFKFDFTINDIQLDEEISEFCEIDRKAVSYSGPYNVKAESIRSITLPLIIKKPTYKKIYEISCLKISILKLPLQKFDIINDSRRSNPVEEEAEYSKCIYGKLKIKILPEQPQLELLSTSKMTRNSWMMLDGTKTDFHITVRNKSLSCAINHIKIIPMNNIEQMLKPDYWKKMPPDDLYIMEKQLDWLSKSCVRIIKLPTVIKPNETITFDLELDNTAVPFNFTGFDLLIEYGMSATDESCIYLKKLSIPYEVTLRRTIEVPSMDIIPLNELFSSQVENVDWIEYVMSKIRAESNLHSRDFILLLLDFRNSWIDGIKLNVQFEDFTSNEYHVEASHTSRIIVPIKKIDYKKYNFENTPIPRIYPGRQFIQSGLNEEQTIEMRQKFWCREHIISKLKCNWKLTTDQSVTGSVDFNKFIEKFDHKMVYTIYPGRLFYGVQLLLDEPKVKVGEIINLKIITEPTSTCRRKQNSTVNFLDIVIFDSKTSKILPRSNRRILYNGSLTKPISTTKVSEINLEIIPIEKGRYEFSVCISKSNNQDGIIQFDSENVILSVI

T2: Trs33 (subunit of core TRAPP/TRAPPI in TRAPPII) (S. cerevisiae, UniProt Q99394 1-268)
T2 sequence (looked up): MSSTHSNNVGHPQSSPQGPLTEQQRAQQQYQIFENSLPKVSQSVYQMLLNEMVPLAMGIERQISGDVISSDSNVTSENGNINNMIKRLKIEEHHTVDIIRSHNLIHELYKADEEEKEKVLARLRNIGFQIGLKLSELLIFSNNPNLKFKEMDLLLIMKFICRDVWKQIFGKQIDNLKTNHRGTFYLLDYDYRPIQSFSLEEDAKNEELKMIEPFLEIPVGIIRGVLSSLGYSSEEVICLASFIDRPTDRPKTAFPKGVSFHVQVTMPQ

T3: Trs31 (subunit of core TRAPP/TRAPPI in TRAPPII) (S. cerevisiae, UniProt Q03337 1-283)
T3 sequence (looked up): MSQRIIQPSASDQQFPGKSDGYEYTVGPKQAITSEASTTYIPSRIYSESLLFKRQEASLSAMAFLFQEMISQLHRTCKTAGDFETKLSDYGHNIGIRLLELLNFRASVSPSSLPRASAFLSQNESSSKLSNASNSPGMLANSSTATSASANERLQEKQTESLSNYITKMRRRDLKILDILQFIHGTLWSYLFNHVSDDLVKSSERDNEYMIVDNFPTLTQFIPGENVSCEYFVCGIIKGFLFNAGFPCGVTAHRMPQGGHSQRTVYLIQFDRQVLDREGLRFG

B1: Trs65 (subunit of TRAPPII) (natural protein, S. cerevisiae, UniProt P32893 1-560, looked up)
chain: MECFVPLRCDLDGSNIEQLRQSHLSRKFIIFDEQLNLWLWFQGNSQENKRFVLQNMIILINEAQVTRTSTIDDYFTQVENNENLWRLKNDCCSKILFKSNVVMNNGYNNQIKFVFEYKSVDANFNNQDSLQDPQAKYTLDKYSSEEILPSFEPVYSWSSAATKSSKNTNNHLEKNNRATHRVSSKNSEVHEADVSRNPNTFTLKLQYPIFSLLNMRLRNISLKSEHCILSSLDFQTSKASEQLTKKFIYPQEHNSFLKLNFQEISYKLIDGTSQIELDPICPLKVPLTAFSYDSISATFKLVLLPKSTQPHRVKITLAYELELHPNLKLPVRTSWETEVTLKRSMPISSTSSQYSSNNNNTNHSASFNGAANNVNSGGLANLRLGGVSSSRFSLGAASTTSLVNSKLSNVKFKFINSNIKVIKGEKFTMRLQIINSSSSPLDLVVYYNNTINPIPSANNVRNSNGINNCGMNNGTIPNSPLTLENQYQLHNKYRKIAEGIILLSNDYKIPVVPPRETYFADLRFIGIMSGYYGTLSGLKVLDLNTNELIEVGNGASVLIQ
B2: Trs130 (subunit of TRAPPII) (natural protein, S. cerevisiae, UniProt Q03660 1-1102, looked up)
chain: MDKEIYCGSVPVSYFDPFDLFESLRPEFQQILPLDNIHWKAFDGTVRTVNRLPIELIPEGRGEADKSNDEQPFIRFLIVNCISIDQYRAKVRPLVRQWLPNLESVSSSTGEKMIYKPIILLYANSEVVDSNLFKSVSLMEKFGKDFPHVQTLEVRSVYRSPKERQEFWNQFSQKIKASVLSIFQKRLTHLQHSLANLQKGNNFEEQLLTREKLYELYVVFNILEDASLELQKIKKEILRRNMNMPDGKLQVPFESSSKSDESLGSIIIEGTLDKFQLHKYFFIRRLRLLKLEDQTLTAFVGAFQLIKNFIESISIEYRKSVRLLEFKHYFITSMLSYFEFENVSNPLLCEIKAELLMLKRDNWVQGVMATSGYRLMDKNYPNSDVKYKFDLLKETFVDETVFQENFLTLTKEILSLFNKCEGKRQRIVDILSIEIGLLYYQGKKYEEAVSLFLSCYEYYTQTNWNSIGLKILQVFIDSLSHCPKLDVLQIDGESVSASAVLTNAFLNILKLCKDNDSKEIWWKKFMDLQMKNNIHLMYPLDGLFEVTLNSKVHLARANVSAIEVNLKSYGFPEDISTKTMRLSLKNMGGDVIVFGASDFLLKKGENKLILECRDIMYGEFSLLSFEIIVEGITFVKEFPENQDEFIVVPEIYCKESTKVLVKQAHNLNLGEYALELKSVQSDALESLQVEVEVQKNIGNMKNLPVSFSMDEIQARKRYNTPFENVRLEYYLLDQITAFDLIIKTSFTKKNDQGTFGETKKVRIQCYLQLSVSVEDIFKKDIFFFKFLLNSSVREEPVILYSSELSAPDTRNDYNIRGDYIATTPALITFDGNESFINCYEITANNNFDSKDIFNLKVRYNTLKEQLDCFITDAVLIEGDVEWFILFEKWKTFWELEILKKLKYDYDAFKENRIIRLLKTSIDLNKTKSKIRNLCIEKAVLDKILICLNKVSRGIAVCNTDMDEYVRNLVPKQLTVPVQLPGFEQFFHVQFEQMETSHDALHDTIATIGNSLSYTVIVENLSGQWGQDVIDDGGYIFEILSSNEWLIHGQKRCAIKEKRKEFEVHLIPLKKGYLNFPRVEITNINGKSCRVDHSNAFESILIF
B3: Tca17 (subunit of TRAPPII) (natural protein, S. cerevisiae, UniProt P32613 1-152, looked up)
chain: MSLRPCFVSLIDESDKPILIYVPNEAENEMNDVLKYNVLSNISLDYFESALVEWHSLDSKPLLKSIFQLEGVSVFAMLIKQTGLKIVIGFEQKSLSGADDEFEAINQIFETVRKIYIRVKCNPLLVSGDEKSIIKSLERKFDELFISTEVEL
B4: Trs20 (subunit of core TRAPP/TRAPPI in TRAPPII) (natural protein, S. cerevisiae, UniProt P38334 1-175, looked up)
chain: MPQYFAIIGKKDNPVYEIEFTNAENPQGFPQDLKELNPFILHASLDIVEDLQWQINPTSQLNGNGGNGSNGGGGFLRSRAVNNTDNCYLGKVDHFYGLAITAYISYSGMKFVMIHGNSANSSVVIDDNNMRSFYQEVHELYVKTLMNPFYKITDPIRSPAFDSRVRTLARKHLSK

Holding throughout (test): cryo-EM structure
The target in assay [1] is T1, Trs120 (3xFLAG-tagged, subunit of …).
The target of assay [2] is B2.
Assay [3] addresses T2, Trs33 (subunit of core TRAPP/TRAPPI in …).
The target in assay [4] is T3, Trs31 (subunit of core TRAPP/TRAPPI in …).

Turning to B1, the binding result in assay [1] and in assay [2] was “binds” each time.

Regarding B2, in assay [1], the binding result was “binds”.

Consider B3, for which the binding result in assay [2] and in assay [3] was “binds” each time.

For B4, the binding result in assay [1] and in assay [4] was “binds” in each case.
